Assay results: the supplement of paper PMC12042874
± gives the uncertainty stated by the source.

Assay: amyloid nucleation score (Sup35N fusion, yeast selection) (log enrichment); library NNK1; higher = more nucleation; inactive = no reads after selection
How it was run: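 Output and input plasmid inserts were sequenced by Illumina after psi-negative yeast carrying Sup35N fused to peptides of 20 random codons had been induced 24 hours with 100 μM copper sulfate and grown 7 days at 30°C on medium lacking adenine and uracil. The nucleation score is the DiMSum log enrichment of output over input reads, centred on the mode score of non-aggregating sequences. Sequences with under 100 input reads were excluded.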

Going from ELTNR to ELVYRMESIFCSELRVLGKF, the amyloid nucleation score rises from 0.044 ± 0.39 to 4.14 ± 0.15.

EMTRLLNSCIKYQYSRQRYA and EMYKSVP are within error of each other in amyloid nucleation score: -0.97 ± 1.2 for the first, 0.109 ± 0.48 for the second.

First: EMYKTRAFLSRKYMRHLLFN
Second: ENHAKLHDICGASGLSREGG
The amyloid nucleation score of the first is lower: -0.316 ± 0.39 for the first, 0.592 ± 0.49 for the second.

Compared with ENRFARCYRVV, EPCVGNSNSCCVHC is lower in amyloid nucleation score: 2.1 ± 0.1 for the first, -0.072 ± 0.53 for the second.

EPGSLTESKSFYFLSCPTTR and EPYSLAIKGVHTLLRGSRKS are within error of each other in amyloid nucleation score: 0.808 ± 0.7 for the first, 0.571 ± 0.29 for the second.

ERLGLRRFTIIISRQAQV and ERLHMLLAKCIHVGETRHLN are within error of each other in amyloid nucleation score: 0.03 ± 0.34 for the first, 0.194 ± 0.66 for the second.

ERPTNSYGSREILNSYIINF and ERRDVRIYKSCGLGHVFYEG are within error of each other in amyloid nucleation score: 5.05 ± 0.084 for the first, 4.91 ± 0.056 for the second.

ERTICSVITMNHGSSAYQGS and ERWIVVPDESTTRTTHRHIN are within error of each other in amyloid nucleation score: -0.081 ± 0.47 for the first, 0.147 ± 1.6 for the second.

ESARCVRVTALSLWHRDQRS and ESHSSTKGSEWLRHSHSDGV are within error of each other in amyloid nucleation score: 1.02 ± 0.8 for the first, 0.632 ± 0.39 for the second.

ESVLWVFYV and ETACLYLLFMSKACMRMMNS are within error of each other in amyloid nucleation score: 0.1 ± 0.41 for the first, -0.219 ± 1.1 for the second.

ETALVVLTRVTEGCGRGQKT and EVCCNVKTL are within error of each other in amyloid nucleation score: 0.668 ± 0.77 for the first, 0.431 ± 0.28 for the second.

Going from EVCWNSCMVADSVSVISNPA to EVFRRSLGTTDAVGPKHDAQ, the amyloid nucleation score rises from -0.231 ± 0.27 to 2.39 ± 0.17.

First: EVIIIGRSIIVLGMGGTKFW
Second: EVRRFMTPGENESSREVAYF
The amyloid nucleation score of the first is higher: 1.72 ± 0.24 for the first, -0.02 ± 0.45 for the second.

Going from EVRSQSNEYHLRNWCVYK to EVSLLSFLE, the amyloid nucleation score falls from 1.31 ± 0.23 to 0.68 ± 0.39.

EYGDDVLWMFSTILCVRGEW and EYGNGSIKPVGRHWLEGYLH are within error of each other in amyloid nucleation score: -0.626 ± 0.47 for the first, -0.701 ± 1 for the second.

FADERIGYSIK and FALGCF are within error of each other in amyloid nucleation score: -0.336 ± 0.44 for the first, -0.079 ± 0.36 for the second.

FASDRLYWTWK and FASRVCMRSNQKIPAWQLWS are within error of each other in amyloid nucleation score: 0.255 ± 0.53 for the first, -0.359 ± 0.29 for the second.

FAVLHNMMFMKYVRLFLVVT and FCELELMVHVVMPFKAVS are within error of each other in amyloid nucleation score: 0.247 ± 0.45 for the first, 0.831 ± 0.77 for the second.

FCFMYDGHEAWSKAFSRRNV and FCHYTVLYDSPTLLVRVTWA are within error of each other in amyloid nucleation score: 0.196 ± 0.3 for the first, -0.681 ± 0.85 for the second.

FCNLYGKQTYLSGFGIHCVV and FDDCFSLLIVPDSTVITKEQ are within error of each other in amyloid nucleation score: 0.127 ± 0.23 for the first, 0.444 ± 0.4 for the second.

Compared with FDFACCTTGIGPFSCDLGSG, FDFCVEIWLRVFLNMWGRLR is lower in amyloid nucleation score: 7.694 ± 0.052 for the first, 0.689 ± 0.33 for the second.

Compared with FDGVRARDALFSGCL, FDKFKNSTVREFMWVEFSVG is higher in amyloid nucleation score: -0.705 ± 0.59 for the first, 0.745 ± 0.74 for the second.

First: FDKSRVDRLSDKGRCCCVL
Second: FDLGHCIDSRRPGLCVMVLV
The amyloid nucleation score of the first is higher: 1.36 ± 0.69 for the first, 0.035 ± 0.34 for the second.

First: FDRMNCALGVPLWDALKDGS
Second: FDYPDGDVVVNKFDSDVCYR
The amyloid nucleation score of the first is higher: 3.4 ± 0.14 for the first, 0.616 ± 0.84 for the second.

FEGALRLTIRSQKD and FEGNQDIYMVRTWKDKMRLV are within error of each other in amyloid nucleation score: 0.574 ± 0.57 for the first, -0.107 ± 0.45 for the second.

Going from FEHVSMWIVCFVKNLKYRIR to FELICNRNGNSPRYAFKKIP, the amyloid nucleation score rises from -0.86 ± 0.86 to 0.976 ± 0.35.

FESRDVRSLWWDWSYSNKTV and FEVNFPAYIYWSDCPVVGVS are within error of each other in amyloid nucleation score: 0.191 ± 0.28 for the first, -0.127 ± 0.38 for the second.

FFELSVYH and FFFHSKDVYYGDFVHLSFAG are within error of each other in amyloid nucleation score: -0.174 ± 0.65 for the first, -0.352 ± 1.2 for the second.

Compared with FFGCFGLYYAMAHLLYPSLE, FFLSLARVGVILHPMMVLTG is lower in amyloid nucleation score: 1.48 ± 0.8 for the first, -0.35 ± 0.64 for the second.

FFLWGRW and FFPTEYHALENLLHADVRVK are within error of each other in amyloid nucleation score: -0.341 ± 0.43 for the first, -0.682 ± 0.36 for the second.

Going from FFRRNHGYNI to FFRTLTWR, the amyloid nucleation score rises from 0.092 ± 0.43 to 1.11 ± 0.55.

Going from FFTRGIVMQRRQHWNGVYGS to FFVLFEVYMVWFTEGFARLA, the amyloid nucleation score falls from 0.737 ± 0.49 to -0.733 ± 0.57.

FFVLKGECVGGLMPWTRVTA and FGESPH are within error of each other in amyloid nucleation score: -0.24 ± 0.92 for the first, 0.494 ± 0.74 for the second.

FGKGNEGTIGNI and FGKSYRRFFARTKFGKAGGP are within error of each other in amyloid nucleation score: -0.22 ± 0.76 for the first, -1.29 ± 1.8 for the second.

FGLCCRSRVFWRWLIKDWKD and FGMLIAVRSR are within error of each other in amyloid nucleation score: -0.566 ± 1.9 for the first, 0.315 ± 0.29 for the second.

FGMWYSVRISTSLVYVMGVL and FGRSVLDRVKVMHVRVVVSV are within error of each other in amyloid nucleation score: -0.23 ± 0.28 for the first, -0.372 ± 0.63 for the second.

Compared with FGSRVVGRCVETSHSILFVL, FGSSMLDFNLDFDKWCE is higher in amyloid nucleation score: 0.58 ± 1.1 for the first, 3.66 ± 0.076 for the second.

Compared with FGTFCMGRPYRYYGCNGGFR, FGTLGK is higher in amyloid nucleation score: 0.674 ± 0.35 for the first, 1.88 ± 0.38 for the second.

First: FGYNILYINQSTWLLNFCQV
Second: FHCGMGIF
The amyloid nucleation score of the first is higher: 6.56 ± 0.049 for the first, -0.197 ± 0.32 for the second.

For EMFHVVGSRLMPVRMVRNQC, the amyloid nucleation score was “inactive”.
For ENKHVGICSGVQFVAFETCY, the amyloid nucleation score was “inactive”.
With ESEWNIMPFDNLYLGRETVW the amyloid nucleation score was “inactive”.
In the case of ESLSCKFLCVYCCL, the amyloid nucleation score is reported as “inactive”.
With FAYFSVNCL the amyloid nucleation score was “inactive”.
For FCFMWGYMVRVIV, the amyloid nucleation score was “inactive”.
For FFTLHAFQ, the amyloid nucleation score was “inactive”.
